Data on eight molecules can be found in patent publication EP4644419A1 (Hangzhou Zhongmeihuadong Pharmaceutical Co., Ltd., dated 2025).

Numbering of substitutions follows the chain as printed.

The labels stand for the following.
T1: human CD112R antigen protein huCD112R-His (Acro Biosysterm, PVG-H52H4) (human, UniProt Q6DKI7 41-171)
T1 construct: purchased; also called human antigen protein; not shown: His tag
T1 sequence (looked up): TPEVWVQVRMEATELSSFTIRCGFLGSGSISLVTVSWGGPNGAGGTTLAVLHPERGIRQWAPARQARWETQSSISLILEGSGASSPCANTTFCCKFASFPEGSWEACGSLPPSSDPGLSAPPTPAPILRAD

T2: human CD112R on GS-J2C/CD112R effector cells (human, UniProt Q6DKI7 1-326)
T2 sequence (looked up): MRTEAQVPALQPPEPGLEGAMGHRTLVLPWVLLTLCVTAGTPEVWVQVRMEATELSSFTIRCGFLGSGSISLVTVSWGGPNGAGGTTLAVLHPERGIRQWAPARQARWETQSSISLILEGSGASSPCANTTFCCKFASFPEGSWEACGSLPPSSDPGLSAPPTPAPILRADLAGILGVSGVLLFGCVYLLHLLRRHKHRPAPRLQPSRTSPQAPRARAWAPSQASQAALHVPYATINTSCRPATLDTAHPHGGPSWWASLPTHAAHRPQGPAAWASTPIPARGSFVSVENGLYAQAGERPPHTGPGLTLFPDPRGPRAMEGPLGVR

T3: monkey antigen protein (monkey CD112R, Uniprot ID: A0A2K5WVV8) (monkey, UniProt A0A2K5WVV8 41-171)
T3 sequence: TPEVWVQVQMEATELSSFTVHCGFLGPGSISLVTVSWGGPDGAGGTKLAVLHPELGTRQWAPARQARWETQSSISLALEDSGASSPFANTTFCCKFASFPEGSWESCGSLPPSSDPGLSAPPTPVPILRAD

B1: C114 (antibody, human IgG1, kappa, V domains shown)
VH: QVQLQQSGAELVRPGTSVKMSCKAAGYTFTNSWINWVKQRPGHGLEWIGDIYPGNTFPNYNEKFKGKATLTADTSSSTAYMQLSSLTSEDSAVYYCTGGYFDVWGTGTTVTVSS
VL: DIVMTQSPSSLSVSAGEKVTMSCKSSQSLLNSGNQKNFLAWYQQKPGQPPKLLIFGASTRQSGVPDRFTGSGSGTDFTLTISSVQAEDLAVYYCQNDHSYPYTFGGGTKLEMKR
B2: C155 (antibody, human IgG1, kappa, V domains shown)
VH: EVQLVESGGGLVKPGGSLRLSCAASGFTFSDYYMYWVRQAPGKGLEWVATISDAGGYTYYPDSVKGRFTISRDNAKNSLYLQMNSLRAEDTAVYYCGREDLWGQGTLVTVSS
VL: DIQMTQSPSSLSASVGDRVTITCRASQDIGYSLNWFQQKPGKAPRRLIYATSRLDSGVPKRFSGSGSGTDFTLTISSLQPEDFATYYCLQYASFPYTFGGGTKLEIKR
B3: C156 (antibody, human IgG1, kappa, V domains shown)
VH: B2 VH with Y95F
VL: B2 VL with R45K
B4: C154 (antibody, human IgG1, kappa, V domains shown)
VH: B2 VH with A49S, G97A
VL: B2 VL with R45K
B5: C64 (antibody, human IgG1, kappa, V domains shown)
VH: EVMLVESGGDLVKPGGSLKLSCAASGFTFSSYFMSWVRQTPEKRLEWVATISGGGDKTYYLDILKGRFTISRDNAKNTLYLQMSSLRSEDTALYYCARHEDYAWYAMDYWGQGTSVTVSS
VL: QIVLTQSPAIMSASPGEKVTMTCSASSSVNYIYWYQQKPGSSPRLLIYDTSNLASGVPVRFSGSGSGTSYSLTISRMEAEDAATYYCQQWSSYPLTFGAGTKLELKR
B6: C71 (antibody, human IgG1, kappa, V domains shown)
VH: B5 VH with M3I, D10G, L18R, K57N, L61P, I63S, L64V, A103E
VL: B5 VL with A13T, N30S, S91T
B7: C129 (antibody, human IgG1, kappa, V domains shown)
VH: QVQLQQSGAELMTPGSSVKLSCKATGYTFTDYWIEWVKKRPGHGLEWIGEILPGYISTNYNEKFKDKATFTADTSSNTTYMQLSSLTSEDSAVYYCVLIVTTYYYFMDYWGQGTSVTVSS
VL: QIVLTQSPAIMSASPGEKVTITCSASSSVTYMHWFQQKPGTSPKLWIYSTSNLASGVPVRFSGSGSGTSYSLTISRMEAEDAATYYCQQRSSYPWTFGGGTKLEIKR
B8: C67 (antibody, human IgG1, kappa, V domains shown)
VH: EAQLQQSGPELVKPGASVKISCKASGYTFTDYYMNWVKQSHGKSLDWIGDINPDNGGSTYNQKFKGKATLTVDKSSSTAYMELRSLTSEDSAVYYCSASGPPYVLLDYWGQGTSVIVSS
VL: DIQMTQSPASLSASVGETVTITCQTSENIYSYLAWYQQKQGKSPQLLVYNTQTLAEGVPSRFSGSRSGAQFSLKINSLQPEDFGSYYCQHHYGVPLTFGAGTKLELKR

For the first test, the target named is T1, human CD112R antigen protein …. Kind of test: SPR (Biacore X100), antibody captured on Protein A chip, huCD112R-His as analyte, 1:1 Langmuir. (SPR reads the build-up and loss of mass on a sensor chip optically.)
As a reminder, the Kd is the constant that tells how readily two partners part at equilibrium. The molecule B1 had a Kd of 0.0356 nM.
For the molecule B2, the Kd was found to be 0.603 nM.
The molecule B3 had a Kd of 0.946 nM.
Molecule B4 showed a Kd of 0.724 nM.
Molecule B5 displayed a Kd of 0.8 nM.
Regarding B6, the affinity, expressed as Kd, was 0.158 nM.
B7 returned a dissociation constant Kd of 0.375 nM.
In the case of B8, the Kd turned out to be 0.02 nM.

For the next test, the target named is T2, human CD112R on GS-J2C/CD112R effector …. Kind of test: cell-based or functional assay.
Consider B2, for which the “EC50 (Blocking effects of the antibodies, reporter gene method)” value was found to be 0.082 mg/L.
For the molecule B3, the “EC50 (Blocking effects of the antibodies, reporter gene method)” value came out at 0.096 mg/L.
For the molecule B4, the “EC50 (Blocking effects of the antibodies, reporter gene method)” value turned out to be 0.071 mg/L.
On to B5, for which the “EC50 (Blocking effects of the antibodies, reporter gene method)” value amounted to 0.039 mg/L.
As for B6, the “EC50 (Blocking effects of the antibodies, reporter gene method)” value amounted to 0.029 mg/L.
Regarding B7, the “EC50 (Blocking effects of the antibodies, reporter gene method)” value came to 0.045 mg/L.
Same read-out and setting: the result for B8 reads 0.03 mg/L.

The target of the next test is T3, monkey antigen protein (monkey CD112R, …). Nature of the test: ELISA, monkey antigen protein (as Example 6.1). In general terms: In an ELISA, binding on a coated surface is turned into a signal by an enzyme label.
For orientation: EC50 means the midpoint of the concentration-response curve. As to B1, the concentration giving a half-maximal response (EC50) worked out at 0.077 nM.
On the same count and under the same terms, next, B5: 0.054 nM; B6: 0.05 nM.
With B8, the EC50 came to 0.08 nM.

Another test deals with T1, human CD112R antigen protein …. Kind of test: ELISA, huCD112R-His coated on plate.
The molecule B1 returned a half-maximal effective concentration (EC50) of 0.042 nM.
The same measure, in the same setting: the result for B5 reads 0.034 nM; that for B6, 0.037 nM.
Turning to B7, the EC50 was 0.034 nM.
B8 came in with a concentration for a half-maximal effect (EC50) of 0.06 nM.
